According to patent US11896644B2, “Inhibition of beta-arrestin oligomerization in tauopathy” (UNIVERSITY OF SOUTH FLORIDA, priority 2020, dated 2024):

Tested on: tauopathy in tau P301S mice
Assay: rAAV9 stereotaxic injection into hippocampus of 5-month old tau P301S mice
Format: in vivo
Experimental: Cells were fixed with 4% paraformaldehyde for 15 min at room temperature and washed with 0.2% triton in TBS and blocked using 3% BSA with 0.1% triton x-100 for 1 hr, incubated with primary antibodies for overnight at 4° C. and fluorescently labeled secondary antibodies for 45 min at room temperature. For immunohistochemistry, mice were perfused with PBS and fixed with 4% paraformaldehyde. 25-micron sections were blocked using normal goat serum for 1 h and incubated with primary antibodies at 4° C. overnight, followed by secondary antibody incubation for 1 h at room temperature prior to mounting. Images were captured with the Olympus FV10i confocal microscope (Tokyo, Japan), and the immunoreactivities were quantified using the Image J software (National Institutes of Health, Bethesda, MD). Immunoreactivities were quantitated from every 12th serial section through an entire hippocampus. In ICC and IHC experiments, all comparison images were acquired with identical laser intensity, exposure time, and filter. Adjustments to the brightness/contrast were applied equally to all comparison images. Regions of interest were chosen randomly, and investigators were blinded to experimental conditions during image acquisition and quantification.
Brain homogenates and cultured cells were lysed with RIPA buffer (50 mM Tris pH 7.4, 150 mM NaCl, 2 mM ethlenediaminetetraacetic acid, 1% NP-40, 0.1% sodium dodecyl sulfate) plus protease and phosphatase inhibitors. Proteins were extracted and centrifuged at 15000 rpm for 15 min at 4° C., and RIPA insoluble fractions were lysed with 5% SDS with 1% β-mercaptoethanol, 50 mM Tris-HCl pH 6.8, 12.5 mM EDTA, 10% glycerol, and 0.02% bromophenol blue. Supernatants were used for western blot analysis. supernatants were used for western blot analysis. co-IP experiments were carried out from NP40 lysates or indicated buffers with preclearing with IgG beads followed by IP with IgG beads alone or IgG beads+indicated antibodies, extensive washing (5×) with the original buffer, and Western blotting on SDS-PAGE. […]

B1: β-arrestin2 ΔIP6N: β-arrestin2 N-terminal domain mutant (K158A, K161A, and R162A), incapable of forming oligomers; dominant negative (protein, UniProt P32121 1-409, looked up, variant K158A K161A R162A)
Beta-arrestin-2: MGEKPGTRVFKKSSPNCKLTVYLGKRDFVDHLDKVDPVDGVVLVDPDYLKDRKVFVTLTCAFRYGREDLDVLGLSFRKDLFIATYQAFPPVPNPPRPPTRLQDRLLRKLGQHAHPFFFTIPQNLPCSVTLQPGPEDTGKACGVDFEIRAFCAKSLEEASHAANSVRLVIRKVQFAPEKPGPQPSAETTRHFLMSDRSLHLEASLDKELYYHGEPLNVNVHVTNNSTKTVKKIKVSVRQYADICLFSTAQYKCPVAQLEQDDQVSPSSTFCKVYTITPLLSDNREKRGLALDGKLKHEDTNLASSTIVKEGANKEVLGILVSYRVKVKLVVSRGGDVSVELPFVLMHPKPHDHIPLPRPQSAAPETDVPVDTNLIEFDTNYATDDDIVFEDFARLRLKGMKDDDYDDQLC
modifications: GFP or YFP tag
notes: dominant negative
Cells verified by GFP tags
  tau levels in individual brain cells with verified expression: essentially undetectable
Expressing neurons vs GFP-expressing control or non-infected neurons
  HT7-immunoreactive tau: significant reductions
Tau P301S mice, two months post injection, vs GFP control
  sarkosyl-insoluble tau: markedly reduced
